Columns and labels:
14-3-3β (Homo sapiens) = 14-3-3β (Homo sapiens) (UniProt P31946); settings: cited from earlier work
mass photometry = target: the molecule itself; assay: mass photometry

Sequence of 14-3-3β (Homo sapiens) (P31946 2-246): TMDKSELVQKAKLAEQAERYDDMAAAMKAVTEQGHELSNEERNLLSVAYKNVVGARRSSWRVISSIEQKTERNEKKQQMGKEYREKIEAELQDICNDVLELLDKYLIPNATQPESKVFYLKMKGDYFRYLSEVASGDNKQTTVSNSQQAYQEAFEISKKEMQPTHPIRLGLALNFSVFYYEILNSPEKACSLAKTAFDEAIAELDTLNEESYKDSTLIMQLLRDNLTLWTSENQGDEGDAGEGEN
Sequence of ExoS ART domain (G3XDA1 233-453): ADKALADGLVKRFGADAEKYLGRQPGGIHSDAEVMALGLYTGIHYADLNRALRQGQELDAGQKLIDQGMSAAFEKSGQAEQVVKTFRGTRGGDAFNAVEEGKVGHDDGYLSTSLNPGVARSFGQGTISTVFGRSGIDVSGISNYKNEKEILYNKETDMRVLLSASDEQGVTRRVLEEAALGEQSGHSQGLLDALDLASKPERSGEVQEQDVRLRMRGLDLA

| Molecule | Kd (14-3-3β (Homo sapiens)) | stoichiometry N (mass photometry) |
| --- | --- | --- |
| ExoS ART domain (from UniProt G3XDA1) | 40 nM | – |
| human 14-3-3β, individually expressed, with affinity tag (natural protein, also called purified 14-3-3β) MTMDKSELVQKAKLAEQAERYDDMAAAMKAVTEQGHELSNEERNLLSVAYKNVVGARRSSWRVISSIEQKTERNEKKQQMGKEYREKIEAELQDICNDVLELLDKYLIPNATQPESKVFYLKMKGDYFRYLSEVASGDNKQTTVSNSQQAYQEAFEISKKEMQPTHPIRLGLALNFSVFYYEILNSPEKACSLAKTAFDEAIAELDTLNEESYKDSTLIMQLLRDNLTLWTSENQGDEG | – | 2 |
| human 14-3-3β, un-tagged, co-expressed with the exotoxin ART domains (natural protein) MTMDKSELVQKAKLAEQAERYDDMAAAMKAVTEQGHELSNEERNLLSVAYKNVVGARRSSWRVISSIEQKTERNEKKQQMGKEYREKIEAELQDICNDVLELLDKYLIPNATQPESKVFYLKMKGDYFRYLSEVASGDNKQTTVSNSQQAYQEAFEISKKEMQPTHPIRLGLALNFSVFYYEILNSPEKACSLAKTAFDEAIAELDTLNEESYKDSTLIMQLLRDNLTLWTSENQGDEG | – | 2 |
